This note sets out measurements from PMC12734981, “A CALB-like Cold-Active Lipolytic Enzyme from Pseudonocardia antarctica: Expression, Biochemical Characterization, and AlphaFold-Guided Dynamics” (Marine Drugs, 2025).

Substrate in series [1]: CC(=O)Oc1ccc([N+](=O)[O-])cc1
Briefly: p-nitrophenol release, initial rates, nonlinear Michaelis-Menten fit. The note with it: 100 mM Tris-HCl pH 7.4, 100 mM NaCl, 25 °C. It counts as biochemical, Pseudonocardia alni.

Substrate in series [2]: CCCC(=O)Oc1ccc([N+](=O)[O-])cc1
The description is as above. The class given is biochemical, Pseudonocardia alni. The note with it: 100 mM Tris-HCl pH 7.4, 100 mM NaCl, 25 °C.

B1: PanLipΔN (Pseudonocardia alni) (protein)
chain: TLPDETFGPVDRPGPALSVPPDQLDAAVRCSANATDADRDVALFVPGTTLTPEVNFGFNWFAALDDLGRPYCSVTLPNNAMTDTQIAAEYVVHAIRHVHGISGRKVDVLGHSQGGTEPRFALRFWPDLRGMVDDYVAFGTTNHGSIAINAALCTPATGCAEALWQQTLNSHYTQAMNSYQETFAGISYTQIYTRTDEFVQPNLDDSGTTSLHGGGGEISNVALQDVCLTEAASEHIAVGTYSPVAYALATDALDHDGPADPARVDRGVCTQVFMPGVDPLTFPTDYAATLGLIANQLALAPRVGSEPELRPYTLADDRQG
notes: Signal peptide (30 residues) and proline-rich putative propeptide (27 residues) removed; ~first 57 residues missing (methods say first 27 of full-length); starts at TLPDE by primer; ends KQNLLE; pET-28a(+) NdeI/XhoI, His tag; codon-optimized; E. coli SHuffle T7 Express; Ni-NTA purified; Precursor length printed as both 324 and 377 residues
As a reminder, the Km is the concentration of substrate that gives half-maximal velocity. For orientation: kcat means the maximal rate divided by the concentration of active sites. On to B1, for which, in series [1], the Km worked out at 66.8 ± 18.5 µM and the kcat worked out at 16.2 ± 1.8 s⁻¹. In addition, in series [2], the Km turned out to be 2.83 ± 1.56 mM and the kcat is 9.7 ± 1.8 s⁻¹.
